# Measured values published in patent publication US7005413 (Amgen, dated 2006).
# Experiments:
# [1] = target: the molecule itself; experiment: homodimerization; non-reducing SDS-PAGE and western blot; the number is the monomer share
# Protocol: The biological activity of each protein was assessed the in vitro osteoclast forming assay described in example 11. Conditioned media from each transfectant was analysed by non-reducing SDS-PAGE and western blotting with anti-OPG antibodies.
# [2] = target: the molecule itself; experiment: self-association; nonreducing SDS gels
# [3] = target: the molecule itself; experiment: homodimerization; non-reducing SDS-PAGE and western blot with anti-OPG antibodies
# Protocol: Each resulting muOPG-CT plasmid containing the appropriate truncation was then transfected into human 293 cells, the mutant OPG-Fc fusion protein purified from conditioned media as described above. The biological activity of each protein was assessed the in vitro osteoclast forming assay described in example 11. The conditioned medias were also analysed by non-reducing SDS-PAGE and western blotting using anti-OPG antibodies.
Protein,percent monomeric [1] [%],further results
muOPG [22-401] C195S (receptor) ETLLPKYLHYDPETGHQLLCDKCAPGTYLKQHCTVRRKTLCVPCPDHSYTDSWHTSDECVYCSPVCKELQSVKQECNRTHNRVCECEEGRYLEIEFCLKHRSCPPGSGVVQAGTPERNTVCKKCPDGFFSGETSSKAPCIKHTNCSTFGLLLIQKGNATHDNCCSGNREATQKSGIDVTLCEEAFFRFAVPTKIIPNWLSVLVDSLPGTKVNAESVERIKRRHSSQEQTFQLLKLWKHQNRDQEMVKKIIQDIDLCESSVQRHLGHSNLTTEQLLALMESLPGKKISPEEIERTRKTCKSSEQLLKLLSLWRIKNGDQDTLKGLMYALKHLKTSHFPKTVTHSLRKTMRFLHSFTMYRLYQKLFLEMIGNQVQSVKISCL,> 90,
"muOPG [22-401] C202S (receptor, Expressed in 293 cells from pcDNA3.1-muOPG) ETLLPKYLHYDPETGHQLLCDKCAPGTYLKQHCTVRRKTLCVPCPDHSYTDSWHTSDECVYCSPVCKELQSVKQECNRTHNRVCECEEGRYLEIEFCLKHRSCPPGSGVVQAGTPERNTVCKKCPDGFFSGETSSKAPCIKHTNCSTFGLLLIQKGNATHDNCCSGNREATQKCGIDVTLSEEAFFRFAVPTKIIPNWLSVLVDSLPGTKVNAESVERIKRRHSSQEQTFQLLKLWKHQNRDQEMVKKIIQDIDLCESSVQRHLGHSNLTTEQLLALMESLPGKKISPEEIERTRKTCKSSEQLLKLLSLWRIKNGDQDTLKGLMYALKHLKTSHFPKTVTHSLRKTMRFLHSFTMYRLYQKLFLEMIGNQVQSVKISCL",> 90,
"muOPG [22-401] C319S (receptor, Expressed in 293 cells from pcDNA3.1-muOPG) ETLLPKYLHYDPETGHQLLCDKCAPGTYLKQHCTVRRKTLCVPCPDHSYTDSWHTSDECVYCSPVCKELQSVKQECNRTHNRVCECEEGRYLEIEFCLKHRSCPPGSGVVQAGTPERNTVCKKCPDGFFSGETSSKAPCIKHTNCSTFGLLLIQKGNATHDNCCSGNREATQKCGIDVTLCEEAFFRFAVPTKIIPNWLSVLVDSLPGTKVNAESVERIKRRHSSQEQTFQLLKLWKHQNRDQEMVKKIIQDIDLCESSVQRHLGHSNLTTEQLLALMESLPGKKISPEEIERTRKTSKSSEQLLKLLSLWRIKNGDQDTLKGLMYALKHLKTSHFPKTVTHSLRKTMRFLHSFTMYRLYQKLFLEMIGNQVQSVKISCL",> 90,
"muOPG [22-401] C277S (receptor, Expressed in 293 cells from pcDNA3.1-muOPG) ETLLPKYLHYDPETGHQLLCDKCAPGTYLKQHCTVRRKTLCVPCPDHSYTDSWHTSDECVYCSPVCKELQSVKQECNRTHNRVCECEEGRYLEIEFCLKHRSCPPGSGVVQAGTPERNTVCKKCPDGFFSGETSSKAPCIKHTNCSTFGLLLIQKGNATHDNCCSGNREATQKCGIDVTLCEEAFFRFAVPTKIIPNWLSVLVDSLPGTKVNAESVERIKRRHSSQEQTFQLLKLWKHQNRDQEMVKKIIQDIDLSESSVQRHLGHSNLTTEQLLALMESLPGKKISPEEIERTRKTCKSSEQLLKLLSLWRIKNGDQDTLKGLMYALKHLKTSHFPKTVTHSLRKTMRFLHSFTMYRLYQKLFLEMIGNQVQSVKISCL",> 90,
"muOPG [22-401] C400S (receptor, Expressed in 293 cells from pcDNA3.1-muOPG) ETLLPKYLHYDPETGHQLLCDKCAPGTYLKQHCTVRRKTLCVPCPDHSYTDSWHTSDECVYCSPVCKELQSVKQECNRTHNRVCECEEGRYLEIEFCLKHRSCPPGSGVVQAGTPERNTVCKKCPDGFFSGETSSKAPCIKHTNCSTFGLLLIQKGNATHDNCCSGNREATQKCGIDVTLCEEAFFRFAVPTKIIPNWLSVLVDSLPGTKVNAESVERIKRRHSSQEQTFQLLKLWKHQNRDQEMVKKIIQDIDLCESSVQRHLGHSNLTTEQLLALMESLPGKKISPEEIERTRKTCKSSEQLLKLLSLWRIKNGDQDTLKGLMYALKHLKTSHFPKTVTHSLRKTMRFLHSFTMYRLYQKLFLEMIGNQVQSVKISSL",> 90,
"huOPG [22-401] (receptor, Recombinant polypeptide from CHO cells) ETFPPKYLHYDEETSHQLLCDKCPPGTYLKQHCTAKWKSVCAPCPDHYYTDSWHTSDECLYCSPVCKELQYVKQECNRTHNRVCECKEGRYLEIEFCLKHRSCPPGFGVVQAGTPERNTVCKRCPDGFFSNETSSKAPCRKHTNCSVFGLLLTQKGNATHDNICSGNSESTQKCGIDVTLCEEAFFRFAVPTKFTPNWLSVLVDNLPGTKVNAESVERIKRQHSSQEQTFQLLKLWKHQNKAQDIVKKIIQDIDLCENSVQRHIGHANLTFEQLRSLMESLPGKKVGAEDIEKTIKACKPSDQILKLLSLWRIKNGDQDTLKGLMHALKHSKTYHFPKTVTQSLKKTIRFLHSFTMYKLYQKLFLEMIGNQVQSVKISCL",,binding result [2]: binds
"muOPG [22-200] (receptor, C-terminal truncation ending at threonine 200, expressed in 293 cells; also called CT 200) ETLLPKYLHYDPETGHQLLCDKCAPGTYLKQHCTVRRKTLCVPCPDHSYTDSWHTSDECVYCSPVCKELQSVKQECNRTHNRVCECEEGRYLEIEFCLKHRSCPPGSGVVQAGTPERNTVCKKCPDGFFSGETSSKAPCIKHTNCSTFGLLLIQKGNATHDNCCSGNREATQKCGIDVT",,binding result [3]: no binding
"Rat OPG [22-401] produced in transgenic mice (receptor, Expressed from the rat cDNA under a hepatocyte control element in transgenic mice; Analysed in liver extracts and serum; also called HE-OPG transgene product) ETFPPKYLHYDPETGRQLLCDKCAPGTYLKQHCTVRRKTLCVPCPDYSYTDSWHTSDECVYCSPVCKELQTVKQECNRTHNRVCECEEGRYLELEFCLKHRSCPPGLGVLQAGTPERNTVCKRCPDGFFSGETSSKAPCRKHTNCSSLGLLLIQKGNATHDNVCSGNREATQNCEIDVTLCEEAFFRFAVPTKIIPNWLSVLVDSLPGTKVNAESVERIKRRHSSQEQTFQLLKLWKHQNRDQEMVKKIIQDIDLCESSVQRHIGHANLTTEQLRILMESLPGKKISPDEIERTRKTCKPSEQLLKLLSLWRIKNGDQDTLKGLMYALKHLKAYHFPKTVTHSLRKTIRFLHSFTMYRLYQKLFLEMIGNQVQSVKISCL",,binding result [2]: binds
"muOPG [22-212] (receptor, also called CT212) ETLLPKYLHYDPETGHQLLCDKCAPGTYLKQHCTVRRKTLCVPCPDHSYTDSWHTSDECVYCSPVCKELQSVKQECNRTHNRVCECEEGRYLEIEFCLKHRSCPPGSGVVQAGTPERNTVCKKCPDGFFSGETSSKAPCIKHTNCSTFGLLLIQKGNATHDNCCSGNREATQKCGIDVTLCEEAFFRFAVP",,binding result [3]: no binding
